Measurements as given in patent US20100120700A1, “METHODS AND COMPOSITIONS FOR TREATING CERVICAL CANCER” (priority 2000, published 2010).
Entries after “also recorded” stand apart in the source; their conditions may differ.

T1: HPV16 E6/TIP 1 interaction (Homo sapiens, UniProt O14907)
T1 construct: made in house; host or cells: E. coli
T1 sequence (O14907 14-116): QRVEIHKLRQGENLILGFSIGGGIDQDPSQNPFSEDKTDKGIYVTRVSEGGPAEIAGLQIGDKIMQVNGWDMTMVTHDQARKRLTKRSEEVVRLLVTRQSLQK


Tests used:
[1] = test system: c-JUN N-terminal kinase (JNK); experiment: Jun kinase assay in microinjected Xenopus oocytes; assay type: cell-based; set-up: inhibition of HPV16 E6-dependent JNK activation by co-injected peptide: dose or concentration left out as unconfirmed; conditions: Xenopus oocytes; for JNK activation by microinjected E6 fusion protein: MBP-E6 or GST-E6 protein (100 nM, 3h), GST-Jun phosphorylation
Method: Experimental Design: This experiment was divided into two phases. In the first phase, an MBP-E6 fusion protein (HPV16; see example 4) was microinjected into Xenopus oocytes at different concetrations and then the oocytes were assayed for INK activity. In the second phase, peptides corresponding to the C-termini of non-oncogenic E6 protein (HPV11), HPV16 E6 (oncogenic) or Tax (shown to block oncogenic E6 binding to PDZ domains, FIG. 3) were co-injected with an activating amount of MBP-E6 fusion protein to assess ther abilities to block JNK activation.
Isolation and Microinjection of Oocytes—Xenopus ovarian tissue was surgically removed, and oocytes were defolliculated for 1-1.5 h at room temperature with 2 mg/ml collagenase and 0.5 mg/ml polyvinylpyrrolidone in Ca21-free modified Barth's solution (88 mM NaCl, 1 mM KCl, 0.82 mM MgSO4, 2.4 mM NaHCO3, 10 mM HEPES, pH 7.5). The oocytes were then washed four times with modified Barth's solution. Stage VI oocytes were sorted manually and incubated at 16° C. for at least 10 h in OR2 solution (82.5 mM NaCl, 2.5 mM KCl, 1 mM CaCl2, 1 mM Na2HPO4, 5 mM HEPES, pH 7.5) supplemented with 1 mg/ml bovine serum albumin and […] gentamicin. Immature oocytes were microinjected with purified MBP-E6 protein or E6 protein and peptide and transferred to fresh OR2 for the duration of the time course. Five oocytes were collected per time point, frozen on dry ice, and stored at −80° C.
Lysis of Oocytes, Eggs, and Embryos—Frozen oocytes, eggs, and embryos were thawed rapidly and lysed by pipetting up and down in 60 ml of ice-cold extraction buffer (EB) (0.25 M sucrose, 0.1 M NaCl, 2.5 mM MgCl2, 20 mM HEPES, pH 7.2) containing 10 mM EDTA, protease inhibitors (10 mg/ml leupeptin, 10 mg/ml pepstatin, 10 mg/ml aprotinin, 1 mM phenylmethylsulfonyl fluoride), and phosphatase inhibitors (50 mM 2-glycerophosphate, 1 mM sodium orthovanadate, 2 mM microcystin). Samples were clarified by centrifugation for 2.5 min in a Beckman E microcentrifuge with a right angle rotor. Crude cytoplasm was collected and processed for immunoblotting or kinase assays, as described below.
Jun Kinase Assay—Jun kinase assays were performed as described. Crude oocyte, egg, or embryo cytoplasm was diluted 1:1 in EB and pre-cleared with 20 ml of glutathione-Sepharose beads (Amersham Pharmacia Biotech) for 1 h at 4° C. with moderate shaking. Lysates were incubated with glutathione S-transferase GST-c-Jun-(1-79) fusion protein (hereafter denoted GST-Jun) immobilized on glutathione- Sepharose beads. After 3 h at 4° C., the beads were washed three times with 50 mM HEPES, pH 7.5, 150 mM NaCl, 1% Triton X-100, 1 mM EDTA, 10% glycerol, 10 mM sodium pyrophosphate, 2 mM sodium orthovanadate, 10 mM sodium fluoride, 1 mM phenylmethylsulfonyl fluoride, and 10 mg/ml aprotinin (24) and once with 0.4 ml of kinase buffer (20 mM HEPES, pH 7.5, 10 mM MgCl2, 1 mM dithiothreitol, 200 mM sodium orthovanadate). The bound JNK activity was detected by the addition of 1 mCi of [g-32]JATP. The reaction was terminated after 20 min at 30° C., and the products were resolved by SDS-PAGE. The gels were transferred to PVDF membranes (Hybond; Amersham Pharmacia Biotech) and the incorporation of [32P]phosphate into GST-Jun was visualized by autoradiography. […]

[2] = target: T1, HPV16 E6/TIP 1 interaction; experiment: Modified G assay, inhibition of TIP1-HPV E6 16 binding; conditions: HPV E6 16 peptide 10 uM, TIP1 fusion protein 5 ug/mL, Tax peptide 0.001-100 uM, FIG. 3
Method: In one embodiment (in which a G assay is used), one or more PDZ domain-containing GST-fusion proteins are bound to the surface of wells of a 96-well plate as described supra (with appropriate controls including nonfusion GST protein). All fusion proteins are bound in multiple wells so that appropriate controls and statistical analysis can be done. A test compound in BSA/PBS (typically at multiple different concentrations) is added to wells. Immediately thereafter, 30 uL of a detectably labeled (e.g., biotinylated) peptide known to bind to the relevant PDZ domain (see, e.g., TABLE 3) is added in each of the wells at a final concentration of, e.g., between about 2 uM and about 40 uM, typically 5 uM, 15 uM, or 25 uM. […] The surface is washed free of unbound peptide three times with ice cold PBS and the amount of binding of the peptide in the presence and absence of the test compound is determined. Usually, the level of binding is measured for each set of replica wells (e.g. duplicates) by subtracting the mean GST alone background from the mean of the raw measurement of peptide binding in these wells. […]
Protocol • 1. […] Take early readings, if necessary, at 650 nm • 17. At 30 minutes, stop reaction with 100 ul of 0.18M H2SO4, and take final reading at 450 nm […]

Molecule | JNK activation by microinjected E6 fusion protein [1] | inhibition of HPV16 E6-dependent JNK activation by co-injected peptide ([1]; co-injected with activating amount of HPV16 E6 fusion protein) | inhibition of binding between TIP1 and HPV E6 16 (A450) [2] | inhibition of binding between TIP1 and HPV E6 16 (A450) ([2]; listed as Tax peptide) | JNK activation by microinjected E6 fusion protein ([1]; listed as HPV E6 16)
HPV18 E6: recombinant GST-E6 fusion protein of HPV18 microinjected into Xenopus oocytes | activated the JNK MAPK pathway in the oocyte |  |  |  | 
Tax PL peptide: unlabeled peptide corresponding to the C-terminus of Tax, an independent PDZ ligand that binds similar PDZ domains (QISPGGLEPPSEKHFRETEV) |  | can be inhibited by co-injection | decrease binding between TIP1 and HPV E6 16 | Inhibition of the interaction between HPV E6 16 and TIP1 | 
HPV16 E6: recombinant full length HPV16 E6 fusion protein (MBP-E6 or GST-E6) microinjected into Xenopus oocytes (protein) MHQKRTAMFQDPQERPRKLPQLCTELQTTIHDIILECVYCKQQLLRREVYDFAFRDLCIVYRDGNPYAVCDKCLKFYSKISEYRHYCYSLYGTTLEQQYNKPLCDLLIRCINCQKPLCPEEKQRHLDKKQRFHNIRGRWTGRCMSCCRSSRTRRETQL | activates c-JUN N-terminal kinase; also recorded: activated the JNK MAPK pathway in the oocyte |  |  |  | activates c-JUN N-terminal kinase (JNK)
